# Assay results published in the DeepSol protein solubility set.
# Assay: soluble on expression in E. coli; label from the status in PepcDB or PDB records
row,Sequence,soluble on expression in E. coli
1,MIPTERRQIILDMVAEKGIVSIAELTERMHVSHMTIRRDLQKLEQQGAVIQVSGGVQSSTRVAHEPSHQIKTELATPQKAAIGKLAASLVQPESCIYLDAGTTTLAIARQLVTMNKLTVVTNDFVIADYLMDNSNCTIIHTGGAVCRENRSCVGEAAATLLRGLMIDQAFISASSWSVRGISTPAEDKVTVKRAVASASRQKILVCDATKYGQVATWLALPLAEFNQIVTDDGLPESAIRALAKVDISLLMAKQ,not soluble
2,MSLEQGIAARKAEAESNASTKGESPDYPGQQVIWRLIQEAGESLRDELRTLAFTLHDHPEEAFEEVFATEEITKLLQNHGFEVQSGVYGVKTALETSFETPGYDPAQHPSIAILAEYDALPEIGHACGHNIIAAAGVGAFLAVTNMIKTAEVKGVDHLDFEGRIVLLGTPAEEGHSGKEYMIRNGAFDGIDASIMMHPFGFDLAEHVWVGRRTMTATFHGVSAHASSQPFMGKNALDAASLAYQGFGVLRQQMPPSDRLHAIITEGGNRPSIIPDTATMSLYVRSLLPEALKDISKRVDDVLDGAALMAGVGVEKQWDVHPASLPVRNNHVLARRWAKTQNLRGRTALSEGILPDTLAASTDFGNVSHLVPGIHPMVKISPENVALHTKEFAAYARTEEAIDAAVDAAIGLAQVAVDALADPQMLIDATLEFTNSGDVLKVGDYLAEGHHHHHH,soluble
3,MSLSETATQAPQPANVLLEVNDLRVTFATPDGDVTAVNDLNFTLRAGETLGIVGESGSGKSQTAFALMGLLATNGRIGGSATFNGREILNLPERELNTLRAEQISMIFQDPMTSLNPYMRVGEQLMEVLMLHKGMSKAEAFEESVRMLDAVKMPEARKRMKMYPHEFSGGMRQRVMIAMALLCRPKLLIADEPTTALDVTVQAQIMTLLNELKREFNTAIIMITHDLGVVAGICDKVLVMYAGRTMEYGKARDVFYQPVHPYSIGLLNAVPRLDSEGAEMLTIPGNPPNLLRLPKGCPFQPRCPHAMEICNNAPPLEAFSPGRLRACFKPVEELL,not soluble
4,MGHHHHHHSHMRTISFFNNKGGVGKTTLSTNVAHYFALQGKRVLYVDCDPQCNATQLMLTEEQTESIYLDGLNDEVAERNSLAKTVYAIFVPLREGESQIAAEITPMRSERFGVDVLPGHPALSQIEDLMSDSWQSALGRQTGPFRRIHWAGQLAHAMERDDRYDVIFFDVGPSLGPFNRTVLLGCDAFVTPTATDLFSFHAFGNLARWFDAWVTQYAEIHEGNMAEWKKYS,not soluble
5,MSLKNIKSNLGDYATLVFDCDGVLLDSNKVKTQAFYEAALPYGEMAAQALADHHVANGGISRYKKFSYFLEHIVAQHAEGPSLEHLLDRYAENVSSGLLSCDIASGIRELRAKTPNTRWLIVSGGDQTELREVFAQRKLAEIFDGGIFGSPDAKEEIIARELRSSNIAPPALFIGDSKYDFKAASESNLDFLFLSDWSEVKNWQQWCNENNIYALGNISSLLETCTHPEEGHHHHHH,soluble
6,MNRGLDPMHVGNARYVKNDDLPKTVPVFPLPGALLLPEGHLPLNIFEPRYLAMIDTALASHRLIGMVQPALHVIEAGIEGGPLSAVGCLGRITSFSETGDGRYVISLTGVCRFRLLEEVAGSEPYRSFRHAPFGADLSGEYDEEAVDRENLLRVFRAFLDANQLEADWESVERAGNRVLVNSLSMMSPFGPAEKQALLEAPDLKTRAETLIAITEIVLAQGSGEGGTVLQLEHHHHHH,not soluble
7,LALYRCAADVQAALDYYFDSETEREDTLEAVIGQFEVKAQSVIAYIKNQEITEKMLEGHIRRMTGKLKAVKAQNQSLKDYLARNMQAAGITEIKADDGTFKASFRKSEAVVILDEAQIPAEFMREAVKTEPDKTAIRKAIESGRQVAGAKIEGRKNLQIR,not soluble
8,MKISAVVVTFNRKKLLLECLNALRNQTYPLDAIFIIDGPSTDGTPEALLECGYIKELPPKKGNWSWETKNVIYSPINNKPIKVYYVRLYKDVGGSGGFYEGVKRAYEEGYNWIWLMDDDAEPREDALEKLIRYMNLPGVIALAPTVIRPTGEISKPHRGILCFKKIFPMIQIPLDESKYKSNQPVQIDFVSFVGPLIKRDAIKIVGFPKKEFFIHHDDVEYSIRLRTVGKIYLIPDSVIIHKENIKKTSLIKKRFLGKTIYRIPYNKLWKTYYGTRNLTYLGRIYSKSKFKFYFKLLKRWAVSVGAIILFDDHKIKRIQFITSAYLDGLRGKFDNEKPKRILYGGKKELEHHHHHH,soluble
9,MGHHHHHHSHMYLRHDKPPYTYLAMIALVIQAAPSRRLKLAQIIRQVQAVFPFFREDYEGWKDSIRHNLSSNRCFRKVPKDPAKPQAKGNFWAVDVSLIPAEALRLQNTALCRRWQNGG,soluble
10,MSLAPRLKLRDITFFERPVQFARPFRFGAITINATTQLFVRVEIEVEGRGSAVGASAELLVPKWFDKRPEFSPAQTVDGLRRSLEIARGLYLARTGFLTAFDLHAACIGAQIATCAKKNIPALAAAYGLAEIDKAILDALLRGVETGFFDGMAGNVAGIDARLSPDLKDAEIAAFLSSRKPLPRVAIRHTVDLDDTVEGKGGVADAHENAGASYFKLKLRGDPAADAARLARIGKELDTLGRSYKVTLDANEQYADLAALQALMDRLDHDSDLRPIASRLLYVEQPMPRDITRQSPLGSLAARGFIIDEADDSYDAFPAARALGYHGISSKSCKGLYKSIVSATRAAKWSGGGEKFFVTGEDLTCQAGLAVQQDLALGAFLGVTHAERNGHHYVDGFGDTPAAEAAAFAAAHPDLYADAGQGIRLSIHDGDLLTGSLHAAGFATSVHPDWSALRPLEQPTSLQEQLAEGHHHHHH,soluble
11,MSLRKLLKKTLFSNIIILCLYLGILKCVNSHISNEIQKQNQTFDKENLESKNTQNLQKSKNPTSQLSKTILKEEFNFLPNDVEINWKGRVLVIGDIHGDLKSLITSLFLSGVINSNLDWIAKNTLLIQLGDVVDRGSHALQIYKLFNKLKSQAPSLGSKFVGLLGNHEVMNLCGQLHYVTDEDFQTYGGRDNRTFEWSKEGFVGKYLRTMKLAIRVNDSLYVHAGLLPKYAKLGLDKLDKLSNDLLEGDFCDFYSSLFFVEDGPLWTRDISLGEEEKACKLVDETLQILGLSRMVVGHTIQHDNRINIKCDNKLILADTGFSEAIYGKPCMLEILYHNDNPDPSNYKSFHPYSINELQVKSNPSKPNIKYIQVTSLFLDKTSTRDEGHHHHHH,soluble
12,MGCMNRENALHIVKQQMHEKRYIHTIGVMETAIELAKLYGVDEKKAEMAAIFHDYAKCRAISEMEEIIKREDLPKDLLCYNKELWHAPVGAYLVEKEVGITDSEILQAITYHTSGHENMTMLDKVIYVADYIEPGRKFPGVEEARKLAYTDINQALLFALKRTIQFLMEKDQTIYPLTFQTYNAVIKEEMSK,not soluble
13,MGSDKIHHHHHHMKQIDLVYRTAFAELAQRTFDAQFQADFPLEGRFVAVPVKGRNYWYFDLPTPEGKDKRRYVGPQDDVDITARVKAHRQVKDDIRERRKLVGMLLRSGGMSAPDRFAGEVTKALADAGLFRLRALLVGSVAFSCYSGLLGVRLPGTSMQTGDADFAQDFAISAEVEDSLPPILDLLRSIDSTFRAVPHQADNAKVVAFSNSVNYRVEFLTTNRGSDDYTGKPSPMPALGGASAENLRFLDFLIYEPVRTVLLHREGVSVNIPAPERYAIHKLIVASRRRTDALGRAKRDKDLVQASLLCEALVETRQSHLLADAYREAWTRGEAWQEGILSGLVLMPDNGKLALANALGVTVDRLGKA,not soluble
14,AHHHHHHGSKILVVAPCLLTPFYVYRGPKDKEYKTSSELRKLLAELSDEWFIFLYPCPELLAVGWPRPPMSREVLERLGTRERSKIIADFIGRVLTEEKPEKVVFVGVKGSPTCGVFTTTSSNPDEFPYVAVQEFFYLSKEERLRKYKELTKNFKVINAPGLLFEILMARFPEAIFVEFDKDNIEESIRRIREVVKE,soluble
15,MGSDKIHHHHHHMAKVRKEDKLPLRMKQLGKIYRLIEQFEEISRIDLSKLSQLAPATITSLTRELIEKKLVIERAVQNTENRGRPAVGLCVSPFYWQSLCATLTYDHFDILLCELDGTTIAQEVYPLDLSDLSSLEQMLPCYFEDFLSKVGTKLSRPITFSIAVAGKLHHLSGFLQRLGEIELNVDLTSLFAGYFDIPIIVTEYFETWLLAESTLGSVIGYDDVIFLQIDDVINLSVLSKGVILQSDHKTCMNIDQIIVPRLYPMQDKINQHLFELERYQIHNQLTYKAFCQFIDLYYPNNNLINTTEKINFLCKKAQLQDPLALEILANIADIIAYILSNLVNLFSPEKIMFTSRLLSVKHVFLNQINQRLAHYLHNSKICEVMTSQYEWNSHEVIAAAIKQKIYDGSLLVYMEKY,not soluble
16,MGSDKIHHHHHHMRKFNLTALSVMLALGLTACQPPEAEKAAPAASGEAQTANEGGSVSIAVNDNACEPMELTVPSGQVVFNIKNNSGRKLEWEILKGVMVVDERENIAPGLSDKMTVTLLPGEYEMTCGLLTNPRGKLVVTDSGFKDTANEADLEKLSQPLADYKAYVQGEVKELVAKTKTFTEAVKAGDIEKAKSLFADTRVHYERIEPIAELFSELDPVIDAREDDFKDGAKDAGFTGFHRIEYALWVEKDVSGVKEIAAKLMTDVEALQKEIDALAFPPGKVVGGASELIEEVAGSKISGEEDRYSHTDLSDFQANVDGSKKIVDLFRPLIEAKNKALLEKTDTNFKQVNEILAKYRTKDGFETYDKLGEADRKALQASINALAEDLAQLRGILGLK,not soluble
17,MGSDKIHHHHHHMIRAGIIGATGYTGLELVRLLKNHPEAKITYLSSRTYAGKKLEEIFPSTLENSILSEFDPEKVSKNCDVLFTALPAGASYDLVRELKGVKIIDLGADFRFDDPGVYREWYGKELSGYENIKRVYGLPELHREEIKNAQVVGNPGCYPTSVILALAPALKHNLVDPETILVDAKSGVSGAGRKEKVDYLFSEVNESLRPYNVAKHRHVPEMEQELGKISGKKVNVVFTPHLVPMTRGILSTIYVKTDKSLEEIHEAYLEFYKNEPFVHVLPMGIYPSTKWCYGSNHVFIGMQMEERTNTLILMSAIDNLVKGASGQAVQNMNIMFGLDETKGLEFTPIYP,soluble
18,MGSDKIHHHHHHMEKLFTYKEFVDMMQKYGIRHTKRKLRRGENLMENASKFSNVVLLINGYISSYTYESPEKLLSIFEPGIFLRYSILEDQPEFVTNIALSDNCEVYEYKKEDIEYALTLFPENFGFQYFFLKRIGRHLYYRALLNGKEHKEKLYYAMKYLGELIGKTDENGNVSLPPEVTLKVLIEYSTLSKAAFYRQRIRLLEQEILKPHENTFIVQKKVASHYENQLTSI,not soluble
19,MSLKRVIGYIRVSTDNQDLERQRVLIRKYCENKGYSLLRIEEDYAISGTVSNRNGLNSILNITNSVADMVVVSELSRLSRQDDIFETLTQIHTIIRNVDLVILDEPDKVYEAGKTIILSDFLMLAIKAYGAADERKKIVSRMTTGKDSKVQAFPLMLTDSNIPTGFKAVPNPNYIKGATPKMLLVEDEERMQLVRDIFNYVANGLSLGKTAEKLNMLGYRTARNKPFYEQSIRTIINDSIYNGVRYWKGMKLELPVKFISDEIWNLAHKKVQENKNYSGEGHHHHHH,soluble
20,TGLLLSLIALSLQAAQLTASVDRTRLNAGETVELTLETDDVTQFGKPDMSSLEASFEVRDTRQLNSLKTLDGSSQATTRWIVTLLPRETGSVIIPSLQLGELKSQPLTLQVMQSETKEPTSHLASIFIEASLDQDSVYVQAQAVLTLRVYHSVSLFDDSSLN,soluble
21,MGSDKIHHHHHHMKKLTVYLATTNPHKVEEIKMIAPEWMEILPSPEKIEVVEDGETFLENSVKKAVVYGKKLKHPVMADDSGLVIYSLGGFPGVMSARFMEEHSYKEKMRTILKMLEGKDRRAAFVCSATFFDPVENTLISVEDRVEGRIANEIRGTGGFGYDPFFIPDGYDKTFGEIPHLKEKISHRSKAFRKLFSVLEKILESENR,soluble
22,MKSNHYMSIMEEFYMDKNLLEITGYDGEGYVPLIDYSHWRVAELRYCEELEVDKLKDMQKHDETDEVFVLLEGDFTLFLGGNGEHIGEIEAIKLEPLKLYNVKRGTYHTHTPEKNSTVLIVENVDTTDDNSPKEKLTLEQKKIIEKLYKEVNS,not soluble
